From patent publication US20240174744A1 (SCIRHOM, published 2024)

T1: hiR2-FL-K536A-T7 (human iRhom2 full length K536A, 3 x T7 tag) (human, UniProt Q6PJF5 1-856)
T1 sequence: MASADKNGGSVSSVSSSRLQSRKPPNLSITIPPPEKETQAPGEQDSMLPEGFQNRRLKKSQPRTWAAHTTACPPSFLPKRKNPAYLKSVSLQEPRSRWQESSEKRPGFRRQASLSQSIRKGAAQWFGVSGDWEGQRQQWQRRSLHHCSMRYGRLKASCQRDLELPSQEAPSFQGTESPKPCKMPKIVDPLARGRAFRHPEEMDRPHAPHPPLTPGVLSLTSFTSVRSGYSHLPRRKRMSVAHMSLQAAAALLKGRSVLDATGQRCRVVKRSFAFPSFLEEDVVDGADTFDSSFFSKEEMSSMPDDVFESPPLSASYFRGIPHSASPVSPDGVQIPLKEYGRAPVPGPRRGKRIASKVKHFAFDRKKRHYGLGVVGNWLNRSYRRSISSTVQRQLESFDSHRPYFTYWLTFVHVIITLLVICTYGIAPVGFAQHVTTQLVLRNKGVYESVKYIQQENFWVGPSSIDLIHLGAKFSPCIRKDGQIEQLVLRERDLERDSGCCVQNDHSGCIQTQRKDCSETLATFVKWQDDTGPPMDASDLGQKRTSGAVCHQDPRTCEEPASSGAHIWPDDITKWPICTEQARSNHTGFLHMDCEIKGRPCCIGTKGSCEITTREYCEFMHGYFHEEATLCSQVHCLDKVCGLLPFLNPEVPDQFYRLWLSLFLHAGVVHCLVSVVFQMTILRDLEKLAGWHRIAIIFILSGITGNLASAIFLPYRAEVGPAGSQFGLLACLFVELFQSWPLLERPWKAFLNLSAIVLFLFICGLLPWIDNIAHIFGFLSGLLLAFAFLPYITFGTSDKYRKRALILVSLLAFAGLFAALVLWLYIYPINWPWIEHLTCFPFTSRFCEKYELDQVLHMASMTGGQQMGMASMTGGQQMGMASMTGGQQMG

T2: hiR1-FL-WT-T7 (human iRhom1 full length wild type C-terminally tagged with 3 consecutive copies of the T7 … (human, UniProt Q96CC6 1-855))
T2 construct: also called human iRhom1 variant expressed by MEF-DKO-hiR1-FL-WT-T7 cells
T2 sequence: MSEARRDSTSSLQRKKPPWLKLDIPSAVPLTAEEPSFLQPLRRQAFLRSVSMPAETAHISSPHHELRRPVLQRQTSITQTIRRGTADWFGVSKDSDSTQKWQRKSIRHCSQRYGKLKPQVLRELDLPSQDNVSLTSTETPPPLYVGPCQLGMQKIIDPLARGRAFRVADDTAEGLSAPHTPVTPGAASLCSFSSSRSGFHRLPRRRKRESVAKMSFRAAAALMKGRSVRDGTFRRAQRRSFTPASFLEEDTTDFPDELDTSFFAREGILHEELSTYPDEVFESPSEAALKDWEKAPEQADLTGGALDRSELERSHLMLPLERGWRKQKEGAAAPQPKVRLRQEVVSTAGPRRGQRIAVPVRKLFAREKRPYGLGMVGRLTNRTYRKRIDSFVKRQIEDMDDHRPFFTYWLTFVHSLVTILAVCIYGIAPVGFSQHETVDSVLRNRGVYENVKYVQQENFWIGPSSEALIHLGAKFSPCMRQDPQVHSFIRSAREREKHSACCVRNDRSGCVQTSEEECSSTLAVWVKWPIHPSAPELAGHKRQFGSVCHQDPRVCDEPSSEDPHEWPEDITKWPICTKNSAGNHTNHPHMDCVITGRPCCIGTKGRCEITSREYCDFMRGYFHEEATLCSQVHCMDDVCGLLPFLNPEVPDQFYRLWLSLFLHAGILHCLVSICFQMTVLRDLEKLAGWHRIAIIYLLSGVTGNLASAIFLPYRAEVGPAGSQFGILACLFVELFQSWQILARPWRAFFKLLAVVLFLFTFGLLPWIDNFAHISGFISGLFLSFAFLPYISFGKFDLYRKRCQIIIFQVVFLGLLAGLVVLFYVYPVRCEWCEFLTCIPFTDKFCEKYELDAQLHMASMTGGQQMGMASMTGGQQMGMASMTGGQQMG

T3: miR2-FL-WT-T7 (mouse iRhom2 full length wild type C-terminally tagged with 3 consecutive copies of the T7 … (mouse, UniProt Q80WQ6 1-827))
T3 construct: also called mouse iRhom2 variant expressed by MEF-DKO-miR2-FL-WT-T7 cells
T3 sequence: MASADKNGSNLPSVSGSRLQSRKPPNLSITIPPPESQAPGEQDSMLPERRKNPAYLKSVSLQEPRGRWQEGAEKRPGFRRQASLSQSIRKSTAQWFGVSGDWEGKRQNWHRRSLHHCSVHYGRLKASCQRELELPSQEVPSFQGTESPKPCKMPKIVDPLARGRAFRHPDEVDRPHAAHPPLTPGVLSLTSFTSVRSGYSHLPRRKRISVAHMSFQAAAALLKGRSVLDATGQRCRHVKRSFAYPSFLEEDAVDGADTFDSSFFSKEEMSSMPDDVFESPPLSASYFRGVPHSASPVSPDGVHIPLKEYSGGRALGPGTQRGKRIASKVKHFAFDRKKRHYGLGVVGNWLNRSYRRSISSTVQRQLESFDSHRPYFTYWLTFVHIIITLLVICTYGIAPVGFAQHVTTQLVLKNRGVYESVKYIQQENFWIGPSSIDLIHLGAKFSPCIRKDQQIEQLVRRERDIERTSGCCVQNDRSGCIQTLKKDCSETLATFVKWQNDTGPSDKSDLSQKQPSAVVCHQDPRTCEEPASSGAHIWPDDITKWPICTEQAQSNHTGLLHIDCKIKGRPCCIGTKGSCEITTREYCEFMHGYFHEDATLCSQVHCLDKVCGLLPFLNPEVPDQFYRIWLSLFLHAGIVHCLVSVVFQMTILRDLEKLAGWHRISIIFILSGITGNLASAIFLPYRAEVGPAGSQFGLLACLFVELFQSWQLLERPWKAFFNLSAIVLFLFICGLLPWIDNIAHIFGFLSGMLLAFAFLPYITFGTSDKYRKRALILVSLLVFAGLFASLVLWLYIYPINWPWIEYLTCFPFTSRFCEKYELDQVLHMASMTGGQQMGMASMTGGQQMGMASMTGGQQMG

B1: antibody 5 (antibody, V domains shown)
VH: QVTLKESGPGILQPSQTLSLTCSFSGFSLSTFGMGVGWIRQPSGKGLEWLAHIWWDDEKYYNSALKSRLTISKATSKNQAFLKIANVDTADTATYYCARISNYGSNYWYFNVWGTGTTVTVSS
VL: QVVLTQSPALMSASPGEKVTMTCSAGSSVSCMYWYQQKPGSSPRVLIYDTSNLASGVPARFTGSGSGTSYSLTISRMEAEDAASYYCQQWNSYPLTFGAGTKLELK
notes: Mouse IgG, kappa light chain; also called clone #5; purified antibody 5
B2: antibody 3 (antibody, V domains shown)
VH: QVTLKESGPGILQPSQTLSLTCSFSGFSLTTFAMGIGWVRQPSGKGLEWLAHIWWDGEKYNNPVLKSRLTISKDTSKNQVFLRIANVDTPDTATYYCARISSIYYIIDNWGQGTSVTVSS
VL: DIVLTQSPATLSVTPGHSVSLSCRASQSISNNLHWYQKKSHESPRLLIKYVSQSISGIPSRFSGSGSGTDFTLSINSVETEDFGMYFCQQSYNWPLTFGAGTKLELK
notes: Mouse IgG, kappa light chain; also called clone #3; purified antibody 3

Key:
[1] = molecular target: T1, hiR2-FL-K536A-T7 (human iRhom2 full …); assay: FACS on MEF-DKO-hiR2-FL-K536A-T7 cells, PE anti-mouse IgG F(ab')2 detection
[2] = molecular target: T2, hiR1-FL-WT-T7 (human iRhom1 full length …); assay: FACS on MEF-DKO-hiR1-FL-WT-T7 cells
[3] = molecular target: T3, miR2-FL-WT-T7 (mouse iRhom2 full length …); assay: FACS on MEF-DKO-miR2-FL-WT-T7 cells

Binder	binding result [1]	binding result [2]	binding result [3]
B1	no binding (tested: 3 µg/ml)	–	–
B2	–	no binding (tested: 3 µg/ml)	no binding (tested: 3 µg/ml)
